Tested on: T1, NC(=O)NC(C(=O)O)c1ccc(O)cc1
T1 construct: pET-28a(+)-Case, N- and C-terminal His6 tags, expressed in E. coli BL21(DE3), Ni-NTA purified, about 37 kDa
Assay: HPLC of D-HPG formed, double reciprocal plot
Assay type: biochemical, Agrobacterium sp. KNK712
Conditions: 50 mM Tris-HCl pH 7.5, 65 °C, 0.1-10.0 mM CpHPG
Text: HPLC of D-HPG formed, double reciprocal plot on DCase (N-carbamoyl-D-amino acid amidohydrolase, EC 3.5.1.77; N-carbamoyl hydrolase)

“DCase (N-carbamoyl-D-amino acid amidohydrolase, EC 3.5.1.77; N-carbamoyl hydrolase) (Agrobacterium sp. KNK712; Q4C)” and “DCase (N-carbamoyl-D-amino acid amidohydrolase, EC 3.5.1.77; N-carbamoyl hydrolase) (Agrobacterium sp. KNK712; A302C/Q4C/T212A)” are within error of each other in Km: 2.44 ± 0.46 mM for the first, 2.38 ± 0.62 mM for the second.

“DCase (N-carbamoyl-D-amino acid amidohydrolase, EC 3.5.1.77; N-carbamoyl hydrolase) (Agrobacterium sp. KNK712; A302C/Q4C)” and “DCase (N-carbamoyl-D-amino acid amidohydrolase, EC 3.5.1.77; N-carbamoyl hydrolase) (Agrobacterium sp. KNK712; A302C/Q4C/T212S)” are within 1.5-fold of each other in Km: 2.56 ± 0.15 mM for the first, 2.12 ± 0.26 mM for the second.

“DCase (N-carbamoyl-D-amino acid amidohydrolase, EC 3.5.1.77; N-carbamoyl hydrolase) (Agrobacterium sp. KNK712; A302C/Q4C/T212G)” and “DCase (N-carbamoyl-D-amino acid amidohydrolase, EC 3.5.1.77; N-carbamoyl hydrolase) (Agrobacterium sp. KNK712; A302C/Q4C/T212V)” are within error of each other in Km: 2.34 ± 0.26 mM for the first, 2.19 ± 0.26 mM for the second.

Compared with “DCase (N-carbamoyl-D-amino acid amidohydrolase, EC 3.5.1.77; N-carbamoyl hydrolase) (Agrobacterium sp. KNK712; Q4C)”, “DCase (N-carbamoyl-D-amino acid amidohydrolase, EC 3.5.1.77; N-carbamoyl hydrolase) (Agrobacterium sp. KNK712; A302C/Q4C/T212A)” is 2.4-fold higher in kcat: 12.6 ± 0.371 s⁻¹ for the first, 30.4 ± 0.703 s⁻¹ for the second.

“DCase (N-carbamoyl-D-amino acid amidohydrolase, EC 3.5.1.77; N-carbamoyl hydrolase) (Agrobacterium sp. KNK712; A302C/Q4C)” and “DCase (N-carbamoyl-D-amino acid amidohydrolase, EC 3.5.1.77; N-carbamoyl hydrolase) (Agrobacterium sp. KNK712; A302C/Q4C/T212S)” are within 1.5-fold of each other in kcat: 29.2 ± 0.733 s⁻¹ for the first, 38.1 ± 0.658 s⁻¹ for the second.

“DCase (N-carbamoyl-D-amino acid amidohydrolase, EC 3.5.1.77; N-carbamoyl hydrolase) (Agrobacterium sp. KNK712; A302C/Q4C/T212G)” and “DCase (N-carbamoyl-D-amino acid amidohydrolase, EC 3.5.1.77; N-carbamoyl hydrolase) (Agrobacterium sp. KNK712; A302C/Q4C/T212V)” are within 1.5-fold of each other in kcat: 36.7 ± 0.658 s⁻¹ for the first, 32.9 ± 0.658 s⁻¹ for the second.

Going from “DCase (N-carbamoyl-D-amino acid amidohydrolase, EC 3.5.1.77; N-carbamoyl hydrolase) (Agrobacterium sp. KNK712; Q4C)” to “DCase (N-carbamoyl-D-amino acid amidohydrolase, EC 3.5.1.77; N-carbamoyl hydrolase) (Agrobacterium sp. KNK712; A302C/Q4C/T212A)”, the kcat/Km rises from 5150 ± 265 M⁻¹ s⁻¹ to 12800 ± 572 M⁻¹ s⁻¹ (2.5-fold).

First: DCase (N-carbamoyl-D-amino acid amidohydrolase, EC 3.5.1.77; N-carbamoyl hydrolase) (Agrobacterium sp. KNK712; A302C/Q4C)
Second: DCase (N-carbamoyl-D-amino acid amidohydrolase, EC 3.5.1.77; N-carbamoyl hydrolase) (Agrobacterium sp. KNK712; A302C/Q4C/T212S)
The kcat/Km of the first is 1.6-fold lower: 11400 ± 516 M⁻¹ s⁻¹ for the first, 18000 ± 722 M⁻¹ s⁻¹ for the second.

“DCase (N-carbamoyl-D-amino acid amidohydrolase, EC 3.5.1.77; N-carbamoyl hydrolase) (Agrobacterium sp. KNK712; A302C/Q4C/T212G)” and “DCase (N-carbamoyl-D-amino acid amidohydrolase, EC 3.5.1.77; N-carbamoyl hydrolase) (Agrobacterium sp. KNK712; A302C/Q4C/T212V)” are within error of each other in kcat/Km: 15700 ± 939 M⁻¹ s⁻¹ for the first, 15000 ± 1200 M⁻¹ s⁻¹ for the second.

Source: paper PMC11151596, “Improving the enzymatic activity and stability of N-carbamoyl hydrolase using deep learning approach” (Microbial Cell Factories, 2024)
